Results reported in the DeepSol protein solubility set.

Experiment: soluble on expression in E. coli; label from the status in PepcDB or PDB records

Sequence | soluble on expression in E. coli
MSLSAKSSLKEVAELAGVGYATASRALSGKGYVSPQTREKVQAAAKELNYVPNQLAKALREHRSALVGVIVPDLSNEYYSESLQTIQQDLKAAGYQMLVAEANSVQAQDVVMESLISIQAAGIIHVPVVGSIAPEGIPMVQLTRGELGPGFPRVLCDDEAGFFQLTESVLGGSGMNIAALVGEESLSTTQERMRGISHAASIYGAEVTFHFGHYSVESGEEMAQVVFNNGLPDALIVASPRLMAGVMRAFTRLNVRVPHDVVIGGYDDPEWYSFVGAGITTFVPPHEEMGKEAVRLLVDLIENPELPTGDVVLQGQVILRGSSTHEGHHHHHH | soluble
MSLSDLITLAQLSQGYRYNSDSLILADFILKQGIKGAVFDVGAGCGIIGILLKKNIANLSLSLIDIQKENIELIEKNLKSNKIQGDIFHDDFNQFQIIKKFDFIVCNPPFYRQGAYKSEDQHKAISKFQEFLPLHSFLAKTNSMLKPNGTLYFCYEALALDEICFILKDMKMKITKLCFVHTHQSKKARLVLIQVKKGSKSPCEILPPFFVYENEILSKQMQEIHLRFRLKSYDEGHHHHHH | soluble
MSLSDLSAFAVTQKWPAQFPEWIQLYSLPTPNGVKVSVMLEEIGLPYEAHRVSFETQDQMTPEFLSVSPNNKIPAILDPHGPGDQPLALFESGAILIYLADKSGQLLAQESAARYETIQWLMFQMGGIGPMFGQVGFFNKFAGREYEDKRPLERYVNEAKRLLGVLDKHLGGREWIMGERYTIADIATFPWIRNLIGFYEAGELVGIDNFPEVKRVLAKFVARPAVIRGLEIPKVSEGHHHHHH | soluble
MSLSDPTNNKPAPVLRESATFDRLTIQEIQRAAETGIYDIRGGGTKRKLPHFDDLLLLGASVSRYPLEGYREKCGTDVVLGNRFAKKPLYLKIPVTIAGMSFGALSANAKEALGRGATIAGTSTTTGDGGMTPEERGQSQHLVYQYLPSRYGMNPDDLRKADAIEIVLGQGAKPGGGGMLLGMKVTERVAGMRTLPVGVDQRSACRHPDWTGPDDLAIKIAEIREITDWEKPIYVKIGASRPYYDVKLAVKAGADVIVLDGMQGGTAATQEVFIEHVGIPILPAIPQAVQALQEMGMHRKVQLIVSGGIRNGADVAKAMALGADAVAIGTAALIALGDNHPRLDEELKKIGSAAGFYDDWQNGRDPAGITTQDPELSKRLDPVEGGRRLANYLRVLVLEAQTMARACGKSHLHNLDPEDLVALTVESAAMARVPLAGTSWIPGSGSKGIITITTDPNSSSVDKLAAALEHHHHHH | soluble
MSLSDRVKKIESFTLTLPRETPYLGKPRPGEEPNGRGYLVRKANRTVYPTFDRSVLVRIETENGAVGWGETYGLVAPRATMEIIDDLLADFTIGRDPFDAAAIHDDLYDLMRVRGYTGGFYVDALAAIDIALWDLAGKLAGLPVCKLLGGQRRDRIAAYISGLPEDTRAKRAELAAAWQAKGFSSFKFASPVADDGVAKEMEILRERLGPAVRIACDMHWAHTASEAVALIKAMEPHGLWFAEAPVRTEDIDGLARVAASVSTAIAVGEEWRTVHDMVPRVARRALAIVQPEMGHKGITQFMRIGAYAHVHHIKVIPHATIGAGIFLAASLQASAALANVDCHEFQHSIFEPNRRLLVGDMDCLNGEYVVPTGPGLGVEPSKEAQGLLKKHEGHHHHHH | soluble
MSLSDSQTLVVKLGTSVLTGGSRRLNRAHIVELVRQCAQLHAAGHRIVIVTSGAIAAGREHLGYPELPATIASKQLLAAVGQSRLIQLWEQLFSIYGIHVGQMLLTRADMEDRERFLNARDTLRALLDNNIVPVINENDAVATAAIKVGDNDNLSALAAILAGADKLLLLTDQKGLYTADPRSNPQAELIKDVYGIDDALRAIAGDSVSGLGTGGMSTKLQAADVACRAGIDTIIAAGSKPGVIGDVMEGISVGTLFHAQATPLENRKRWIFGAPPAGEITVDEGATAAILERGSSLLPKGIKSVTGNFSRGEVIRICNLEGRDIAHGVSRYNSDALRRIAGHHSQEIDAILGYEYGPVAVHRDDMITREGHHHHHH | soluble
MSLSDTEKKIADTKGQFLQAVSQGQRLTDAEWRNCRIVLTTERVALLGDDKRQISLTDIDRIADRFDVNQQSAGVSDYVALYVGEDVILVSASDHGTFETDFYRASLDGAIVLVQHPALKGGVVQSAEWTKGRLKVTDEALKLAMADGQAVVIDRADIGDLAVEEKQVSGEERTVIQVEHSEEDISVETHLAGEEFHATVLRTMLEESAEQNQADLDLSSTEKRVIMALHSGVSPFDIPNFVGIDVEKTEEIFDRLIELDVISVLRERTEVNLTTKGRRVAGERMGEQEGHHHHHH | not soluble
MSLSETASWQPSASIPNLLKRAAIMAEIRRFFADRGVLEVETPCMSQATVTDIHLVPFETRFVGPGHSQGMNLWLMTSPEYHMKRLLVAGCGPVFQLCRSFRNEEMGRYHNPEFTMLEWYRPHYDMYRLMNEVDDLLQQVLDCPAAESLSYQQAFLRYLEIDPLSADKTQLREVAAKLDLSNVADTEEDRDTLLQLLFTFGVEPNIGKEKPTFVYHFPASQASLAQISTEDHRVAERFEVYYKGIELANGFHELTDAREQQQRFEQDNRKRAARGLPQHPIDQNLIEALKVGMPDCSGVALGVDRLVMLALGAETLAEVIAFSVDRAEGHHHHHH | soluble
MSLSFSMKIKNIPYYVATRVVKRIQSWLGLNTLGARAIVTNAEGHVLLVKHTYQPHWYLPGGGVKKGESTKAAVIRELHEEVGLVVAEQDVILFGIYHHKYLGVNDYPVIYIVKNFTSHVTHSGEIEQIGWFSLDALPEMVSPGTKRRLGEYFDNNPISEGHHHHHH | not soluble
MSLSFYERYLEYKNFDFENFFDQVTDRDIINIINKDRRLSELEFLMLLSKKAVKYLEPLAQKANRITVQNFGKVIFLYTPMYLANYCVNQCIYCGFNITNNIKRRKLTLDEVEKEAYAISSTGLRHILILTGESRKESPVQYIKDCVKILQKYFRSISIEVYPLEENEYAELIEAGVDGLTIYQEVYDEEKYKALHLKGPKRNYLYRLDAPERACKASMRNVNIGALLGLHDWRTEAFYTGLHADYLQNKYPDVEIGLSLPRIRPHPCGSFVPDCKVEDRDLVQIMIAYRLFMPRAGIAISTRERESLRNNLIGLGVTKMSAASSTEVGGHTLGDKSDGQFDVNDRRGVEEMRQMIYSKGYQPVFKDWQAEGHHHHHH | soluble
MSLSGDLVSLKVVVFDIGNVLLRWDPRLLYRKIFSEENQMEWFLSQVCSEAFNRKLDGGAPFAAAIEALVAQFPDFSKEIRAYDERWLETTSGPIPETFAILEELVAEGVPLYAITNFSYEKFEVARCAFELFDRFDGIVVSGAEGVVKPEAPIYRLLLDRYGLDASDCLFIDDSAANVDGARAVGMQGYHYRDPISLRWKLTECGLLCRKSDLNDKGQVLEKREGHHHHHH | soluble
MSLSGKENPNICFLPTATGDADEVIERFYNAKLSENVTHFPLFKFDAGWKETLFEQDIIYVGGGNTRSMLAIWREWGIDRILKQCYEQGIIICGMSAGAICWFEFAVTDSDPEAYQVMRCLGLIDGLAAAHFSHVGEKFEVFQAFARSQPSITCYGIHDYAALHFVDGKLLATVTSFPDAGVLVKTGNDENILRGEGHHHHHH | not soluble
MSLSGRAGRHERTGEVIVQSYNPEHYSIEFAKKHDFIGFYNHEMQLRKMGSYPPFYYLTMINVSDENEMKAIRTIQEMAQFLRGKLGPDAVILGPVPSTITRIKNKYRYQCIIKYKIEPNLKKELKTLITHYQKDQQKGLTITIDVQPYVLMEGHHHHHH | soluble
MSLSHSEKDVHEMGRFLLSTIKGSILELAFSHGEVEGLSFEKKVTILEIEDLDLPTDRHDELDENQRLSVTLMFALGTFCSKFGSRNRKEETVTFFDEAWIFQSSPEGQKILKSMKRIGRSFNNFMVLITQSVNDVLDNGDGTGFGTVVCFDEVDNREGILRYLKLPVNEINLKWVSNMIQGQCLMKDMFNQVNRIVIDVIFEEWLELFETVDEGHHHHHH | not soluble
MSLSILNSLKNIAFIGFYFIFAVNKMSRADEGRLIHLAKKREREKEDIEQQLRKLEEDKEKCRVGITNKFMANYETVEEVVKSKTYGLVSLDDMKNIQKNEISNRDLQVARGDQSSSTQSKDSQEAREKEEHVAKHTQKRFLSFAFDDEEDEEDAAPIIPKKRVGMDPTVDTSFLPDKEREEFLRKKKESLAAEWRVKQDAEKNEEITVAYAYWDGSSHRKNMKIKKGNTISQCLGRAIEALKKEFTELKSCTAENLMFVKEDLIIPHFYTFQDFIVTKAMGKTGPLFVFDSASDVRIRQDAALDYGESHPAKIVLRSWYEKNKHIYPASRWEPFVPSKKYGRNFDDLSDL | not soluble
